Reference: patent publication US20070280945A1 (Regeneron, published 2007)

T1: recombinant hIL-6R protein, monomeric form (human, UniProt P08887 20-358)
T1 construct: also called monomeric hIL-6R; Human IL6R
T1 sequence: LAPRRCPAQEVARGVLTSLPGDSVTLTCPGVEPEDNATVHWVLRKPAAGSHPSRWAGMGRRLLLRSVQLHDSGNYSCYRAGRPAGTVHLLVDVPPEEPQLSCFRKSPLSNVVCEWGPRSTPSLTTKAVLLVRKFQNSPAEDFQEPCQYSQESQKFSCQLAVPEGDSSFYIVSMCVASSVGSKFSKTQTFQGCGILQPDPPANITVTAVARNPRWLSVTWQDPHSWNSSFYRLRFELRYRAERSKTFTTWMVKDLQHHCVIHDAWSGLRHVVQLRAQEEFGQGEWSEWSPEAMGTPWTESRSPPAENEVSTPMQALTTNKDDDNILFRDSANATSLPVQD

T2: hIL-6R on hIL-6-responsive human cells (XG-1 myeloma line, HepG2 hepatoma line) (human, UniProt P08887 20-468)
T2 sequence (looked up): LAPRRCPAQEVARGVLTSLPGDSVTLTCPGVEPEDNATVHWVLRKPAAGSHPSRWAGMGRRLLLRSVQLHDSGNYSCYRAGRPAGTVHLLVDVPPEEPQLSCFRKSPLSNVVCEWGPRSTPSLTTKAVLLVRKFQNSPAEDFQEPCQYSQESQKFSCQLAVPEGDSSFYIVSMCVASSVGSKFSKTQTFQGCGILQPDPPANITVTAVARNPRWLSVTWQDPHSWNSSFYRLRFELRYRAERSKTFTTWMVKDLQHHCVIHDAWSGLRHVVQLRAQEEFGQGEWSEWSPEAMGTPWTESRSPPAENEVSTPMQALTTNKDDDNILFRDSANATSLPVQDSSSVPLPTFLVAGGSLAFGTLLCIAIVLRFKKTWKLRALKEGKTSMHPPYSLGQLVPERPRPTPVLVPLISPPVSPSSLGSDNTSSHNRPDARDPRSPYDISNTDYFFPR

T3: Recombinant monkey monomeric IL-6R protein (Macaca fascicularis, extracellular domain) (Macaca fascicularis, UniProt P08887 21-330 (human entry))
T3 construct: also called Monkey IL6R; monkey IL-6R
T3 chain: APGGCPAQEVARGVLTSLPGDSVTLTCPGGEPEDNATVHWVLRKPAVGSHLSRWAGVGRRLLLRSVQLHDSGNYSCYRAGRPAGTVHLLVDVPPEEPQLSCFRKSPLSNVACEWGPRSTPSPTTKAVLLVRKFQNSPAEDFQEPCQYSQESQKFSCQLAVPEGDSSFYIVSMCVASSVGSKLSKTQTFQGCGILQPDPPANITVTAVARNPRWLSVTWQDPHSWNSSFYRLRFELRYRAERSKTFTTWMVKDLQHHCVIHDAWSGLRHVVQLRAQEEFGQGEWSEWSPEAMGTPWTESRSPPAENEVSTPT

T4: hIL-6R recombinant protein (plate-coated, Example 5) (human, UniProt P08887 20-358, limits assumed)
T4 construct: also called antigen
T4 sequence: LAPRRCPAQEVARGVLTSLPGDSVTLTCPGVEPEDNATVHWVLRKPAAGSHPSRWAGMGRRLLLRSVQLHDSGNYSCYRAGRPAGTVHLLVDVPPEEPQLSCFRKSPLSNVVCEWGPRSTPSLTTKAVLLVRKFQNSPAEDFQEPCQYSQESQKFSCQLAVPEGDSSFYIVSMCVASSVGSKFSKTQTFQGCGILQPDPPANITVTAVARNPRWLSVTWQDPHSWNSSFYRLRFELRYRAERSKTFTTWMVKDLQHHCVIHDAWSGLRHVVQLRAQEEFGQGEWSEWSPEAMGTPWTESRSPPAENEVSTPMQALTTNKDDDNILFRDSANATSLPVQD

T5: hIL-6R-hFc (human, UniProt P08887 20-358)
T5 construct: also called dimeric hIL-6R; Dimer; not shown: human Fc (hFc)
T5 sequence: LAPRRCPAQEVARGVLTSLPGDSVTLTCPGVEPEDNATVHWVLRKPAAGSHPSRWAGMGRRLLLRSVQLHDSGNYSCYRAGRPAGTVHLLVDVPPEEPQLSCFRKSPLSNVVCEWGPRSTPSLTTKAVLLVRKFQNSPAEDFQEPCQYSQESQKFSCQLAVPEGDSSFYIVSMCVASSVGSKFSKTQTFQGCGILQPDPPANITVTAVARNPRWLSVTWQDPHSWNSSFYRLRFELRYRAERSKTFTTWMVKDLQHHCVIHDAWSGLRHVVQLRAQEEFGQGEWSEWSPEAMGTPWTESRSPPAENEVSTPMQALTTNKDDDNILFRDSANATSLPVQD


How the values were obtained:
[1] = biological target: hIL-6R on hIL-6-responsive human cells (XG-1 myeloma line, HepG2 hepatoma line) (human) (UniProt P08887); experiment: cell-based or functional assay
[2] = biological target: recombinant hIL-6R protein, monomeric form (human) (UniProt P08887); experiment: SPR (BIAcore), captured antibody, monomeric hIL-6R
hIL-6R-hFc (human) = hIL-6R-hFc (human) (UniProt P08887); experiment: blocking ELISA: 100 pM hIL-6R-hFc premixed with varied antibody, free hIL-6R-hFc captured on hIL-6-coated plate
[3] = biological target: recombinant hIL-6R protein, monomeric form (human) (UniProt P08887); experiment: Kinexa solution-phase competition immunoassay, monomeric hIL-6R
[4] = biological target: Recombinant monkey monomeric IL-6R protein (Macaca fascicularis, extracellular domain) (Macaca fascicularis); experiment: SPR (BIAcore), captured antibody, monomeric IL-6R 1.25-40 nM injected
[5] = biological target: recombinant hIL-6R protein, monomeric form (human) (UniProt P08887); experiment: as above
[6] = biological target: T1, recombinant hIL-6R protein, monomeric …; experiment: SPR (BIAcore), antibody captured on anti-mouse IgG surface, monomeric hIL-6R
[7] = biological target: T2, hIL-6R on hIL-6-responsive human cells …; experiment: cell-based or functional assay
[8] = biological target: T1, recombinant hIL-6R protein, monomeric …; experiment: Kinexa solution-phase competition immunoassay, monomeric hIL-6R
[9] = biological target: T3, Recombinant monkey monomeric IL-6R …; experiment: SPR (BIAcore), antibody captured on goat anti-mouse Fc, monomeric IL-6R 1.25-40 nM injected
[10] = biological target: T1, recombinant hIL-6R protein, monomeric …; experiment: as above
[11] = biological target: T4, hIL-6R recombinant protein …; experiment: competition ELISA on hIL-6R-coated plate presaturated with competitor control antibody; test antibody 50 ng/ml
[12] = biological target: T3, Recombinant monkey monomeric IL-6R …; experiment: SPR (BIAcore); reference: binding to human IL-6R; end of range tied to this antibody by Table 4 (0.569 against 0.377 nM)
hIL-6R-hFc [13] = biological target: T5, hIL-6R-hFc; experiment: SPR (BIAcore): hIL-6R-hFc captured, antibody injected, then 50 nM hIL-6; percent reduction in hIL-6 binding
hIL-6R-hFc [14] = biological target: T5, hIL-6R-hFc; experiment: competition ELISA: antibody premixed with serial dilutions of hIL-6R-hFc, free antibody detected on hIL-6R-hFc-coated plate
hIL-6R-hFc [15] = biological target: T5, hIL-6R-hFc; experiment: SPR (BIAcore), antibody captured on anti-mouse IgG surface, dimeric hIL-6R
hIL-6R-hFc [16] = biological target: T5, hIL-6R-hFc; experiment: blocking ELISA: 100 pM hIL-6R-hFc premixed with varied antibody, free hIL-6R-hFc captured on hIL-6-coated plate
[17] = biological target: T1, recombinant hIL-6R protein, monomeric …; experiment: SPR (BIAcore), captured mouse-IgG antibody, monomeric hIL-6R 1.56-12.5 nM
[18] = biological target: T2, hIL-6R on hIL-6-responsive human cells …; experiment: cell-based or functional assay; remark: listed apart in the source
[19] = biological target: T4, hIL-6R recombinant protein …; experiment: SPR (BIAcore) competition on hIL-6R; competitor: control antibody
[20] = biological target: T1, recombinant hIL-6R protein, monomeric …; experiment: SPR (BIAcore), captured antibody, monomeric hIL-6R
[21] = biological target: T3, Recombinant monkey monomeric IL-6R …; experiment: SPR (BIAcore); reference: binding to human IL-6R; end of range tied to this antibody by Table 4 (0.143 against 0.051 nM)
[22] = biological target: T1, recombinant hIL-6R protein, monomeric …; experiment: SPR (BIAcore), captured mouse-IgG antibody, monomeric hIL-6R 1.56-12.5 nM; mIgG2a isotype
[23] = biological target: T1, recombinant hIL-6R protein, monomeric …; experiment: SPR (BIAcore), antibody captured on goat anti-human Fc, monomeric hIL-6R 1.56-12.5 nM
[24] = biological target: T1, recombinant hIL-6R protein, monomeric …; experiment: SPR (BIAcore), antibody captured on goat anti-human Fc, monomeric hIL-6R 1.56-12.5 nM; modhIgG4 isotype

humanized monoclonal antibody to human IL-6R (U.S. Patent No. 5,817,790 SEQ ID NO:69 and 71), sequence (VH): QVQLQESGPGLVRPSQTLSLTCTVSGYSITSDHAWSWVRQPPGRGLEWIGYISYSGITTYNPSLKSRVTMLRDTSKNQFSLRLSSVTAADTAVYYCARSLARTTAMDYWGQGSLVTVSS
humanized monoclonal antibody to human IL-6R (U.S. Patent No. 5,817,790 SEQ ID NO:69 and 71), sequence (VL): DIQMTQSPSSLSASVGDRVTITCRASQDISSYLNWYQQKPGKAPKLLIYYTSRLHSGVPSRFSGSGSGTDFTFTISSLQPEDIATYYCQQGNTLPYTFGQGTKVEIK

| Molecule | Kd [6] [nM] | HepG2/STAT3 luciferase assay IC50 [7] [nM] | Kd [8] [nM] | Kd [9] [nM] | koff [9] [s⁻¹] | kon [9] [M⁻¹ s⁻¹] | Kd [10] [nM] | koff [10] [s⁻¹] | kon [10] [M⁻¹ s⁻¹] | % reduction of binding by control antibody [11] [%] | hIL6/hIL6R Binding Inhibition (%) (hIL-6R-hFc [13]) | IC50 (hIL-6R-hFc [14]) [nM] | Kd (hIL-6R-hFc [15]) [nM] | IC50 (hIL-6R-hFc [16]) [nM] | Kd [17] [nM] | koff [17] [s⁻¹] | kon [17] [M⁻¹ s⁻¹] | HepG2/Stat3 Luciferase activity IC50 [18] [nM] | XG-1 cell proliferation Inhibition IC50 [18] [nM] | % reduction of binding by control antibody [19] [%] | further results |
| --- | --- | --- | --- | --- | --- | --- | --- | --- | --- | --- | --- | --- | --- | --- | --- | --- | --- | --- | --- | --- | --- |
| humanized monoclonal antibody to human IL-6R (U.S. Patent No. 5,817,790 SEQ ID NO:69 and 71) |  |  |  |  |  |  |  |  |  |  |  |  |  |  |  |  |  |  |  |  | HepG2/Stat3 Luciferase activity IC50 [1]: 0.854 nM; XG-1 cell proliferation Inhibition IC50 [1]: 1.5 nM; Kd [2]: 1.79 nM; IC50 (hIL-6R-hFc (human)): 2.2 nM; Kd [3]: 1.96 nM; Kd [4]: 1.17 nM; Kd [5]: 0.963 nM |
| VQ8A9-6 (antibody, V domains shown, Human variable regions with mouse constant region (hybridoma-derived chimeric antibody); also called VQ8A9-6 mIgG1) VH: EVQLVESGGNLVQPGRSLRLSCAASGFIFDDYAMHWVRQAPGKGLEWVSGISWNSGSIGYADSVKGRFTISRDNAKNSLYLQMNSLRAEDTALYYCAKDGGSSWLPFVYYYGMDVWGQGTTVTVSS VL: EIVMTQSPATLSVSPGERATLSCRASQSISSNFAWYQQKPGQAPRLLIYGASTRATGIPARFSGSGSGTDFTLTISSLQSEDFAVYYCQQYSSWPPYTFGQGTKLEIK | 0.222 | 0.097 | 0.12 | 0.569 | 0.000416 | 731000 | 0.377 | 0.000276 | 732000 | 3 | 68 | 0.004 | 0.101 | 0.39 | 0.222 | 0.000221 | 995000 | 0.097 | 0.4 | 26 | fold difference of KD, monkey against human receptor [12]: 1.5 fold |
| 248982-13-2-A9 (antibody, V domains shown) VH: QVQLVQSGGGLVQPGRSLRLSCAASGFTFDDYAMHWVRQAPGKGLEWVSGISWNSGRVGYADSVKGRFTISRDNAKNSLYLQMNSLRAEDTALYYCTKGRDAFDIWGQGTMVTVSS VL: DIVMTQSPSSVSASVGDRVTITCRASQGISSWLAWYQQKPGKAPKLLIYAASSLQSGVPSRFSGSGSGTDFTLTISSLQPEDFATYYCQQANSFPYTFGQGTKLEIK |  |  |  |  |  |  |  |  |  |  |  | 0.054 |  |  |  |  |  |  |  |  | Kd [20]: 2.87 nM |
| VQ8F11-21 (antibody, V domains shown, Human variable regions with mouse constant region; also called VQ8F11-21 mIgG2a) VH: EVQLVESGGGLVQPGRSLRLSCAASRFTFDDYAMHWVRQAPGKGLEWVSGISWNSGRIGYADSVKGRFTISRDNAENSLFLQMNGLRAEDTALYYCAKGRDSFDIWGQGTMVTVSS VL: DIQMTQSPSSVSASVGDRVTITCRASQGISSWLAWYQQKPGKAPKLLIYGASSLESGVPSRFSGSGSGTDFTLTISSLQPEDFASYYCQQANSFPYTFGQGTKLEIK | 0.067 | 0.135 | 0.009 | 0.143 | 4.86e-05 | 339000 | 0.051 | 4.38e-05 | 851000 | 79 | 98 | 0.008 | 0.023 | 0.12 |  | 5.27e-05 | 786000 | 0.135 | 0.62 | 96 | fold difference of KD, monkey against human receptor [21]: 3 fold; Kd [22]: 0.067 nM |
| VV6A9-5 (antibody, V domains shown, Human variable regions with mouse constant region; also called VV6A9-5 mIgG2a) VH: EVQLVESGGGLVQPGRSLRLSCAASGFTFDDYALHWVRQAPGKGLEWVSGVSWNGGRIGYADSVKGRFTISRDNAKNSLFLQMNSLRVEDTALYYCAKGRDAFDIWGQGTLVTVSS VL: DIQMTQSPSSVSASVGDRVTITCRASQGISSWLAWYQQKPGKAPKLLIYAASSLQSGVPSRFSGSGSGTDFTLTISSLQPEDFATYYCQHAYSFPYTFGQGTKLEIK | 0.097 | 0.188 | 0.032 | 0.154 | 7.7e-05 | 500000 | 0.162 | 8.41e-05 | 518000 | 84 | 100 | 0.005 | 0.146 | 0.35 | 0.097 | 7.52e-05 | 772000 | 0.188 | 1.1 | 96 |  |
| VQ8F11-21 modhIgG4 (antibody, V domains shown, Modified human IgG4 constant region; also called VQ8F11-21 modified human IgG4) VH: EVQLVESGGGLVQPGRSLRLSCAASRFTFDDYAMHWVRQAPGKGLEWVSGISWNSGRIGYADSVKGRFTISRDNAENSLFLQMNGLRAEDTALYYCAKGRDSFDIWGQGTMVTVSS VL: DIQMTQSPSSVSASVGDRVTITCRASQGISSWLAWYQQKPGKAPKLLIYGASSLESGVPSRFSGSGSGTDFTLTISSLQPEDFASYYCQQANSFPYTFGQGTKLEIK |  | 0.249 |  |  |  |  |  |  |  |  |  |  |  |  |  |  |  |  |  |  | Kd [23]: 0.053 nM; kon [23]: 881000 M⁻¹ s⁻¹; koff [24]: 4.7e-05 s⁻¹ |
